Assays:
[1] = molecular target: chicken Tapasin (chTapasin), luminal domain (chicken (Gallus gallus)); experiment: SPR
[2] = molecular target: chicken Tapasin (chTapasin), luminal domain (chicken (Gallus gallus)); experiment: NMR chemical shift perturbation
[3] = molecular target: _(FITC)…, fluorescently labeled high-affinity peptide; experiment: fluorescence polarisation

Kd [1] | lifetime of the complex [2] | Kd [3] | Substance
1200 nM | > 200 ms | – | open HLA-B*37:01 (G120C)/β2m (H31C), UV-irradiated (empty) (from UniProt P61769 21-119) (complex)
– | – | 5.5 nM | open B*37:01/chTapasin complex (empty) (from UniProt P61769 21-119)
